From patent US20030073084A1

Target: wild type p53 (human cells) (human) (UniProt P04637)
Assay: cell-based or functional assay

WAF1 mRNA level in HT1080 cells (Northern blot): 4 to 6 times
Substance: p28^ING1 (alternative splice variant of human ING1)
